Positions count from the first letter of the chain named.
B1: CD3B158 (antibody, V domains shown)
VH: EVQLVESGGGLVQPGGSLKLSCAASGFTFNTYAMNWVRQASGKGLEWVGRIRSKYNGYATYYAASVKGRFTISRDDSKNTAYLQMNSLKTEDTAVYYCTRHGNFGNSYVSWFAYWGQGTLVTVSS
VL: QTVVTQEPSLTVSPGGTVTLTCRSSTGAVTTSNYANWVQQKPGQAPRGLIGGTNKRAPGTPARFSGSLLGGKAALTLSGVQPEDEAEYYCALWYSNLWVFGGGTKLTVL
notes: also called CD3H144/CD3L66
B2: CD3B147 (antibody, V domains shown)
VH: EVQLLESGGGLVQPGGSLRLSCAASGFTFNTYAMNWVRQAPGKGLEWVARIRSKYNNYATYYADSVKGRFTISRDNSKNTLYLQMNSLRAEDTAVYYCAKHGNFGNSYVSWFAYWGQGTLVTVSS
VL: B1 VL with T2A, V80A
notes: also called CD3H142/CD3L63
B3: CD3B151 (antibody, V domains shown)
VH: B2 VH with A99V
VL: B1 VL with T2A, V80A
notes: also called CD3H143/CD3L63
B4: CD3B155 (antibody, V domains shown)
VH: B1 VH
VL: B1 VL with T2A, V80A
notes: also called CD3H144/CD3L63
B5: CD3B156 (antibody, V domains shown)
VH: B1 VH
VL: QSVLTQPPSVSAAPGQKVTISCRSSTGAVTTSNYANWVQQLPGTAPKGLIGGTNKRAPGIPDRFSGSKSGTSATLGITGLQTGDEADYYCALWYSNLWVFGGGTKLTVL
notes: also called CD3H144/CD3L64
B6: CD3B154 (antibody, V domains shown)
VH: B2 VH with A99V
VL: B1 VL
notes: also called CD3H143/CD3L66

Columns and labels:
[1] = biological target: T1, cynomolgus CD3ε on primary cynomolgus CD4+ T cells (cynomolgus monkey, UniProt Q95LI5 22-198); assay: flow cytometry on primary cynomolgus CD4+ T cells (CD3e), anti-human IgG (H+L) Alexa Fluor 647
T1 construct: whole, on cells
Experimental: (§1) The resulting panel of anti-CD3 antibodies was tested for binding against cell-surface CD3ε on primary human T cells. To do this, binding of antibodies from expression supernatants was visualized using a polyclonal anti-human secondary antibody and analyzed by flow cytometry. Briefly, binding of anti-CD3 antibodies to cell-surface CD3E was assessed by flow cytometry using primary Human T lymphocytes purified by negative selection (Biological Specialty, Colmar, USA). Expression supernatants or purified antibodies were normalized to 10 μg/ml in media or FACS buffer (BD BioSciences), respectively. 2×10⁵ cells were aliquoted into wells of a 96 well round-bottomed plate (CoStar) for labeling. Antibodies in expression supernatant were added to cells and incubated for 45 min at 4° C. Following centrifugation at 1300 rpm for 3 min and removal of supernatant, 50 μL of anti-human IgG (H+L) Alexa Fluor 647 secondary antibody (Life technologies Inc.) was incubated with the cells at a final concentration of 10 μg/mL for 30 min at 4° C. away from direct light. Following washing and resuspension in 30 μL FACs buffer (BD BioSciences). Sample collection was performed on an Intellicyt HTFC system using ForeCyt software. Viable single cells were gated prior to analysis of binding using the green or red fixable live/dead dyes (Life Technologies Inc.) and forward/side scatter area and height parameters, respectively. Graphs were generated in GraphPad Prism version 5 using mean fluorescence intensity values.
Binding analysis of the anti-CD3 hits to primary cynomolgus CD4⁺ T cells was then tested in order to assess the retention of cross-reactivity. Purified CD4⁺ T cells from the peripheral blood of cynomolgus monkeys (Zen Bio, Triangle Research Park, USA were used). Assay protocols were similar to those described above.

[2] = biological target: T2, human CD3ε on primary human T cells (human, UniProt P07766 23-207); assay: flow cytometry on primary human T cells (cell-surface CD3e), anti-human IgG (H+L) Alexa Fluor 647; one intermediate concentration of the titration is shown
T2 construct: whole, on cells; Part of the TCR-CD3 complex on the cells; also called cell-surface CD3ε; CD3E
Experimental: as §1

T2 sequence (P07766 23-207): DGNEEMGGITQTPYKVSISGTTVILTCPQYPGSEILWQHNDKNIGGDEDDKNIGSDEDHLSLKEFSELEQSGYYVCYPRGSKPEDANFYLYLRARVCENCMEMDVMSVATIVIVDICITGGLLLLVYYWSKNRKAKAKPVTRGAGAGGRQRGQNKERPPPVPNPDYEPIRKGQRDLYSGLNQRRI
T1 sequence (Q95LI5 22-198): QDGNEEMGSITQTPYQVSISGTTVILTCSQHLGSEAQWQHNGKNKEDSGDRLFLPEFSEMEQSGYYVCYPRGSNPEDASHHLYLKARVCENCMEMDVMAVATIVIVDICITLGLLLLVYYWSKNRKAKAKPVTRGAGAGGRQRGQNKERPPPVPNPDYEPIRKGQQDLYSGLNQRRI

Binder | binding result [1] | binding result [2]
B1 | binds | binds
B2 | binds | binds
B3 | binds | binds
B4 | binds | binds
B5 | binds | binds
B6 | binds | binds
